Results as given in patent publication US20230382948A1, “DELIVERY OF ENDOTHELIAL CELL-LADEN MICROGEL ELICITS ANGIOGENESIS IN SELF-ASSEMBLING ULTRASHORT PEPTIDE HYDROGELS” (KING ABDULLAH UNIVERSITY OF SCIENCE AND TECHNOLOGY, priority 2020, published 2023).
Where no end group is shown, it is not given here. [ ]: non-standard residue; d: D form. Cha = N[C@@H](CC1CCCCC1)C(=O)O

How the values were obtained:
[1] = Peptide gelation study (vial inversion method); format: physicochemical; conditions: 1 mg/ml and 10 mg/ml, compared to IIZK and IZZK, FIG. 57
Procedure: The preweighed (as per the required final concentration) peptide powder was dissolved in 0.9 mL of Milli-Q® water in a glass vial. The solution was vortexed for 5-10 s to obtain a clear and homogeneous solution. To this peptide solution, 0.1 mL of PBS buffer (10×, w/o Ca^2+ and Mg^2+) was added. To ensure a homogeneous distribution of buffer in the solution, the glass vial was further vortexed for 2-3 s. The glass vial was kept undisturbed on the bench, and hydrogel formation was observed using the vial inversion method, as shown in FIG. 9. The pH of the solutions of IVFK (SEQ ID NO. 1) and IVZK (SEQ ID NO. 2) was 5.57 and 5.48 at a 5 mg/mL concentration, respectively. After the addition of PBS, the pH changed to 7.7 and 7.6 for IVFK (SEQ ID NO. 1) and IVZK (SEQ ID NO. 2), respectively. The pH of the Milli-Q® water and phosphate buffer used was 6.7 and 7.4, respectively.

[2] = Rheological characterization of SUP bulk hydrogels; format: physicochemical
Procedure: The mechanical stiffness of the peptide hydrogels was analyzed using a TA Ares-G2 Rheometer equipped with parallel-plate geometries of 8 mm diameter at room temperature. The sample gap between the upper and the lower geometries was set at 1.8 mm. The hydrogels were prepared from 135 μL of peptide solution that was mixed with 15 μL of 10×PBS in an 8 mm i.d. poly(methyl methacrylate) (PMMA) casting ring and left for 1 day before measurement. The rings were kept inside Petri dishes at room temperature with water surrounding them and tightly sealed to avoid dehydration. To control the accuracy of the measurements, six replicates for each peptide hydrogel were prepared. The stiffness was analyzed through three successive tests, which were time sweep, frequency sweep, and amplitude sweep. Time sweep was first performed for 5 min with an angular frequency and a strain of 1 rad/s and 0.1%, respectively. A frequency sweep was subsequently performed on the sample for a range of angular frequency of 0.1-100 rad/s with the same strain of 0.1%. The tests were completed with the amplitude sweep by applying a gradual increase of strain […] at 1 rad/s angular frequency.

| Substance | Self-assembly rate (time to form a gel) [1] | Loss modulus (G″) ([2]; 1 mg/mL) [kPa] | Storage Modulus (G′, kPa) ([2]; 1 mg/mL) [kPa] | tan δ (G″/G′) ([2]; 1 mg/mL) | Loss modulus (G″) ([2]; 2 mg/mL) [kPa] | Storage Modulus (G′, kPa) ([2]; 2 mg/mL) [kPa] | tan δ (G″/G′) ([2]; 2 mg/mL) | Loss modulus (G″) ([2]; 5 mg/mL) [kPa] | Storage Modulus (G′, kPa) ([2]; 5 mg/mL) [kPa] | tan δ (G″/G′) ([2]; 5 mg/mL) | Loss modulus (G″) ([2]; 8 mg/mL) [kPa] | Storage Modulus (G′, kPa) ([2]; 8 mg/mL) [kPa] | tan δ (G″/G′) ([2]; 8 mg/mL) | Loss modulus (G″) ([2]; 10 mg/mL) [kPa] | Storage Modulus (G′, kPa) ([2]; 10 mg/mL) [kPa] | tan δ (G″/G′) ([2]; 10 mg/mL) | Loss modulus (G″) ([2]; 13 mg/mL) [kPa] | Storage Modulus (G′, kPa) ([2]; 13 mg/mL) [kPa] | tan δ (G″/G′) ([2]; 13 mg/mL) |
| --- | --- | --- | --- | --- | --- | --- | --- | --- | --- | --- | --- | --- | --- | --- | --- | --- | --- | --- | --- |
| IIFK: self-assembling ultrashort tetrapeptide, one-letter sequence IIFK | slower than the Cha-containing peptides | 0.13 ± 0.04 | 1.25 ± 0.86 | 0.10 | 1.31 ± 0.12 | 14.45 ± 1.37 | 0.09 | 2.39 ± 0.11 | 27.26 ± 1.30 | 0.09 | 5.00 ± 0.31 | 49.74 ± 5.02 | 0.10 | 9.04 ± 0.56 | 94.18 ± 7.12 | 0.10 | 8.90 ± 0.36 | 108.21 ± 5.02 | 0.08 |
| IIZK: self-assembling ultrashort tetrapeptide, Cha-containing, one-letter sequence IIZK (II[Cha]K) | – | 0.88 ± 0.04 | 6.52 ± 0.18 | 0.13 | 2.02 ± 0.09 | 16.82 ± 0.72 | 0.12 | 7.08 ± 0.59 | 64.74 ± 4.89 | 0.11 | 10.91 ± 0.44 | 89.40 ± 1.86 | 0.12 | 15.54 ± 0.68 | 134.04 ± 5.99 | 0.12 | 37.76 ± 2.38 | 271.34 ± 35.09 | 0.14 |
